Measured values as given in patent US20230399397A1 (EWHA UNIVERSITY INDUSTRY COLLABORATION FOUNDATION, published 2023).
Blank lines part the entries; values can stand above or below the binder they belong to.

Assays:
[1] = target: T1, human OSCAR-Fc (fusion of ectodomain of human-derived OSCAR protein and Fc domain of human immunoglobulin … (human)); assay: serial dilution ELISA, 4-parameter logistic curve fit
T1 construct: also called hOSCAR-Fc; hOSCAR

[2] = target: T1, human OSCAR-Fc (fusion of ectodomain of …); assay: BLI (Octet); BLI (Octet); mother clone D11
Procedure: Therefore, based on intensities of the ELISA signals, expression levels, stability, and activity of the clones whose affinity was matured from the clone D11, D11-B9 was selected, and relative affinity thereof to OSCAR was re-evaluated by way of serial dilution. […] To measure a dissociation constant more accurately, analysis was performed by measuring bio-layer interferometry (BLI) signals using an Octet device. […] In the same manner as in the serial dilution ELISA, the clone D11 seems to have a lower affinity to hOSCAR. A dissociation constant was about 5.6 nM, and a lower response signal was measured (FIG. 10).

[3] = target: T1, human OSCAR-Fc (fusion of ectodomain of …); assay: bio-layer interferometry (Octet), antibody as ligand on the sensor, hOSCAR as analyte
[4] = target: T2, mouse OSCAR-Fc (fusion of ectodomain of mouse-derived OSCAR protein and Fc domain of human immunoglobulin … (mouse)); assay: bio-layer interferometry (Octet), antibody as ligand on the sensor, mOSCAR as analyte
T2 construct: also called mOSCAR-Fc; mOSCAR

[5] = target: T2, mouse OSCAR-Fc (fusion of ectodomain of …); assay: BLI (Octet)
[6] = target: T1, human OSCAR-Fc (fusion of ectodomain of …); assay: BLI (Octet)
[7] = target: T1, human OSCAR-Fc (fusion of ectodomain of …); assay: BLI (Octet); BLI (Octet); hOSCAR
[8] = target: T2, mouse OSCAR-Fc (fusion of ectodomain of …); assay: serial dilution ELISA (re-evaluation); re-evaluation by serial dilution (FIG. 10); mOSCAR
[9] = target: T1, human OSCAR-Fc (fusion of ectodomain of …); assay: serial dilution ELISA, 4-parameter logistic curve fit; first serial dilution ELISA of the IgG clones (FIG. 9)
Procedure: Next, the EC₅₀ values of the clones were calculated using a 4-parameter logistic curve fit from serial dilution ELISA.

[10] = target: T2, mouse OSCAR-Fc (fusion of ectodomain of …); assay: BLI (Octet); BLI (Octet); mOSCAR
[11] = target: T1, human OSCAR-Fc (fusion of ectodomain of …); assay: serial dilution ELISA (re-evaluation); re-evaluation by serial dilution (FIG. 10); hOSCAR
[12] = target: T1, human OSCAR-Fc (fusion of ectodomain of …); assay: ELISA, periplasm extract of the scFv clone on coated hOSCAR-Fc
Procedure: (§1) To select anti-OSCAR antibodies via ELISA screening, first, 200 μL of SB-carbenicillin was added to each well of a 96-well microplate, and E. coli colonies obtained in the third and fourth panning processes were added thereto, followed by incubation at 37° C. for 2 hours while stirring. Using a plate replication pin tool, the cultured clones were transferred to a new microplate, IPTG was added to each well in which E. coli was cultured to a final concentration of 1 mM, followed by incubation […] while stirring. Then, the microplate was centrifuged and the supernatant discarded, and then precipitated E. coli was suspended in 40 μL of ice-cold 1× TES (20% sucrose, 50 mM Tris, 1 mM EDTA, pH 8.0) per well. Then, […] was added to each well, mixed well, and left on ice for 30 minutes, followed by centrifugation of the microplate to obtain a periplasm extract.
(§2) Subsequently, 25 μL of human and mouse OSCAR-Fc and human IgG each diluted in PBS to a concentration of 2 μg/mL were added to each well of a 96-well plate for ELISA and left to stand at 37° C. for 1 hour such that an antigen was adsorbed onto the surface of the well. […] Once a blue color was clearly developed, reaction was terminated by adding 25 μL of 1 N aqueous sulfuric acid solution to each well, and a color change signal was measured using absorbance at a wavelength of 450 nm. […]

[13] = target: T2, mouse OSCAR-Fc (fusion of ectodomain of …); assay: ELISA, periplasm extract of the scFv clone on coated mOSCAR-Fc
Procedure: as §1, §2

[14] = target: T2, mouse OSCAR-Fc (fusion of ectodomain of …); assay: competitive ELISA, IgG premixed with OSCAR-Fc, on coated collagen
Procedure: (§3) Specifically, 25 μL of collagen (collagen type I from rat tail) diluted with PBS to a concentration of 2 μg/mL was added to an ELISA plate and adsorbed onto the ELISA plate by leaving to stand at 4° C. overnight. The surface onto which collagen was not adsorbed was protected by using a 3% milk powder solution. Subsequently, the purified anti-OSCAR IgG antibody and human or mouse OSCAR-Fc [fusion of ectodomain of human and mouse-derived OSCAR protein and Fc domain of human immunoglobulin gamma 1 (human IgG1)][human-derived: hOSCAR-Fc (SEQ ID NO: 4) and mouse-derived: mOSCAR-Fc (SEQ ID NO: 5)] were mixed to have concentrations of 2 μg/mL and 1 μg/mL, respectively, for 1.5 hours to bind to each other. Then, the mixture was added to the collagen-adsorbed ELISA plate from which the powdered milk solution was removed in an amount of […] and left to stand at room temperature for 1.5 hours. Subsequently, the plate was washed three times with PBST to remove unreacted antibodies and OSCAR-Fc, and 25 μL of an HRP-conjugated anti-human IgG antibody diluted at 1:3,000 was added to each well and left to stand at room temperature for 1 hour to detect OSCAR-Fc bound to collagen. […] Absorbance was measured at 450 nm to analyze the degree of OSCAR-collagen binding (FIG. 2).

[15] = target: T1, human OSCAR-Fc (fusion of ectodomain of …); assay: as above
Procedure: as §3

EC50 [1]: 520 nM | Kd [2]: ~5.6 nM | Kd [3]: 5.61 nM | Kd [4]: 2.87 nM
B1: anti-OSCAR antibody D11 (IgG) (antibody, V domains shown)
VH: EVQLLESGGGLVQPGGSLRLSCAASGFTFSDYYWTWVRQAPGKGLEWVSGSPVFGAANYAQNFQGRFTISRDNSKNTLYLQMNSLRAEDTAVYYCAKAGFTGGHFDIWGQGTLVTVSS
VL: QSVLTQPPSASGTPGQRVTISCSGSSSNIGNNYVSWYQQLPGTAPKLLIYGNSNRPSGVPNRFSGSKSGTSASLAISGLRSEDEADYYCQSYDSSSWLFGGGTKLTVLG
notes: also called clone D11; mother-clone D11

fold affinity against clone D11 [5]: ≥ 10 times | fold affinity against clone D11 [6]: 10 times | Kd [7]: 0.4 nM | EC50 [8]: 36.8 nM | EC50 [9]: 1.5 nM | Kd [3]: 0.41 nM | Kd [10]: 0.2 nM | Kd [4]: 0.222 nM | EC50 [11]: 36.8 nM
B2: anti-OSCAR antibody D11-B9 (IgG) (antibody, V domains shown)
VH: EVQLLESGGGLVQPGGSLRLSCAASGFTFSDYYWTWVRQAPGKGLEWVSGSPVFGAANYAQNFQGRFTISRDNSKNTLYLQMNSLRAEDTAVYYCAKAGIPGHFDIWGQGTLVTVSS
VL: QSVLTQPPSASGTPGQRVTISCSGSSSNIGNNYVSWYQQLPGTAPKLLIYGNSNRPSGVPNRFSGSKSGTSASLAISGLRSEDEADYYCQSYDSSSWLFGGGTKLTVLG
notes: also called clone D11-B9; D11-69 (misprint in the text)

binding result [12]: binds | binding result [13]: binds
B3: anti-OSCAR scFv B4 (scFv, V domains shown)
VH: EVQLLESGGGLVQPGGSLRLSCAASGFTFSDYAMSWVRQAPGKGLEWVSGIYHGGGNIYYADSVKGRFTISRDNSKNTLYLQMNSLRAEDTAVYYCARAPDEFDYWGQGTLVTVSS
VL: QSVLTQPPSASGTPGQRVTISCSGSSSNIGNNSVTWYQQLPGTAPKLLIYYNSHRPSGVPDRFSGSKPGTSASLAISGLRSEDEADYYCGAWDSSLNGYVFGGGTKLTVL
notes: Single-chain Fv; Tested as periplasm extract

binding result [14]: binds | binding result [15]: binds
B4: anti-OSCAR antibody B4 (IgG) (antibody, V domains shown)
VH: EVQLLESGGGLVQPGGSLRLSCAASGFTFSDYAMSWVRQAPGKGLEWVSGIYHGGGNIYYADSVKGRFTISRDNSKNTLYLQMNSLRAEDTAVYYCARAPDEFDYWGQGTLVTVSS
VL: QSVLTQPPSASGTPGQRVTISCSGSSSNIGNNSVTWYQQLPGTAPKLLIYYNSHRPSGVPDRFSGSKPGTSASLAISGLRSEDEADYYCGAWDSSLNGYVFGGGTKLTVLG
notes: also called clone antibody B4
